Consider 1 molecule from patent US20130004981A1, “SYSTEM AND METHOD FOR SELECTING MOLECULE INTERACTING WITH PROTEIN PHOSPHATASE” (priority 2011, published 2013).

Assay [1] has as its target T1, PP2A subunits Aα, Cα and B55β2 (Homo sapiens, UniProt P30153+P67775).
T1 construct: FLAG; HA (N); Flag; expressed in transfected cells; host or cells: NIH3T3 (mouse embryonic fibroblast cell line)
The assay is described as follows: BiFC-based FRET fluorescence of PP2A holoenzyme assembly (YFPN-Aα+Cα-YFPC+B55β2-CFP) in transfected NIH3T3 cells. The settings on record: NIH3T3 cells co-transfected with YFPN-Aα+Cα-YFPC+B55β2-CFP plus test plasmid; FIG. 4. In kind it is cell-based. On the procedure:
(§1) In the following embodiments of the present invention, NIH3T3 cells (mouse embryonic fibroblast cell line) was used, which was cultured in Dulbecco's modified Eagle's medium (DMEM) supplemented with 10% bovine serum (BS), 1% Penicillin (10 U/μl)/Streptomycin (10 μg/μl), and 1% L-Glutamine (200 mM). All of the reagents were available from GIBCO.
(§2) NIH3T3 cells were seeded into proper dishes one day before transfection. For example, 7×10^4 cells were seeded in each well of a 24-well plate; 10^6 cells were seeded in a 6 cm dish; and 3×10^6 cells were seeded in a 10 cm dish. […]
(§3) After 24 hrs, cells were washed with PBS buffer three times and fixed by 4% paraformaldehyde/0.025% glutaraldehyde for 15 ruin. […] The cells were observed by fluorescence microscopy (Zeiss, Axio observer Z1). […]
(§4) In the present embodiment, the plasmids of the following experimental groups were transfected into NIH3T3 cells with the aforementioned transfection process, and the cover glasses used in the present embodiment were prepared with the same process described in Embodiment 1. The cells were observed by fluorescence microscopy (Zeiss, Axio observer Z1), and the fluorescence and fluorescent efficiency generated from cells were programmed by Zeiss AxioVision complied with Youvan's method. […]

Assay [2] addresses T2, PP2A subunits B56γ3, Aα and Cα (Homo sapiens, UniProt P30153+P67775).
T2 construct: HA; Flag; expressed in transfected cells; host or cells: NIH3T3 (mouse embryonic fibroblast cell line)
The assay is described as follows: BiFC-based FRET fluorescence of PP2A holoenzyme assembly (YFPN-B56γ3+YFPC-Aα+CFP-Cα) in transfected NIH3T3 cells. It counts as cell-based. The settings on record: NIH3T3 cells co-transfected with YFPN-B56γ3+YFPC-Aα+CFP-Cα plus test plasmid; FIG. 3. Here is the method:
as §1, §2, §3, §4

T2 sequence (P30153 whole entry): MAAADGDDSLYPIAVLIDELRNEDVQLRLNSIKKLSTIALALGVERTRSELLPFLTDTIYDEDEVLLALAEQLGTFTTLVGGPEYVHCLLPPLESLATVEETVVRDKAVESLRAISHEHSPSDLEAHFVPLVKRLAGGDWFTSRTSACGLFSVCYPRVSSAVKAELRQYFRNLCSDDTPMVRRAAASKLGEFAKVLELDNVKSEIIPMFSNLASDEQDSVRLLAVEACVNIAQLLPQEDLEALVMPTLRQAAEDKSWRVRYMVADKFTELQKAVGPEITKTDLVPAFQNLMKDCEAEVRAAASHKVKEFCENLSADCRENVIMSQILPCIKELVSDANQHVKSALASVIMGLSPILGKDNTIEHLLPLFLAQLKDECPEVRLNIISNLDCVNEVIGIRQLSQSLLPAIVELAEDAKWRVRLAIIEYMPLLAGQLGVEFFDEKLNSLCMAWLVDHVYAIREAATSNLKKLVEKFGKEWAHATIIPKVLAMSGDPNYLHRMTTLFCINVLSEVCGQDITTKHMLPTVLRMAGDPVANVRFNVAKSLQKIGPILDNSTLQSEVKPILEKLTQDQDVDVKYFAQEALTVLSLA
T2 sequence (P67775 whole entry): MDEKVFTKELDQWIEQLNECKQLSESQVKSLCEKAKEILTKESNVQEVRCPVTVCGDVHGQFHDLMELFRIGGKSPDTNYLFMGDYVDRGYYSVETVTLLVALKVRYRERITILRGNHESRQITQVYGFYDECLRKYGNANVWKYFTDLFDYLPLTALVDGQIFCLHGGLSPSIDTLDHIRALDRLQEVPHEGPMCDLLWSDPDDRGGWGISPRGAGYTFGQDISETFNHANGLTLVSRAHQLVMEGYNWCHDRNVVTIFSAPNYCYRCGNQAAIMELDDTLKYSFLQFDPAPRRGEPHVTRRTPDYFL
T1 sequence (P30153 whole entry): as the sequence (P30153 whole entry) above
T1 sequence (P67775 whole entry): as the sequence (P67775 whole entry) above

B1: ST: small T (SV40 small T antigen) expressed from pCMV5; may influence the association between the scaffold subunit and the regulatory subunit (protein, UniProt P03081 1-174, looked up)
Small t antigen: MDKVLNREESLQLMDLLGLERSAWGNIPLMRKAYLKKCKEFHPDKGGDEEKMKKMNTLYKKMEDGVKYAHQPDFGGFWDATEVFASSLNPGVDAMYCKQWPECAKKMSANCICLLCLLRMKHENRKLYRKDPLVWVDCYCFDCFRMWFGLDLCEGTLLLWCDIIGQTTYRDLKL
Turning to B1, in assay [1], the “fluorescence and efficiency generated from cells (association between subunits A and B)” value is “only generated weak fluorescence and efficiency”. For the same molecule, the “fluorescence generated from cells (association between subunits A and B)” value in assay [2] is reported as “did not generate any fluorescence”.
